Reference: article PMC9828637, “Pol32, an accessory subunit of DNA polymerase delta, plays an essential role in genome stability and pathogenesis of Candida albicans” (Gut Microbes, 2023)

Molecular target: T1, CaPol32 (wild type, GST tag cleaved) (C. albicans, UniProt A0A1D8PDM8 1-403)
T1 construct: Pol32, smallest subunit of DNA polymerase delta, C. albicans SC5314; ORF amplified from genomic DNA with primers NAP39 (start codon) and NAP40 (stop codon); length 403 aa, 46.0 kDa; source: S. cerevisiae protease deficient strain, purified (glutathione-Sepharose 4B, GST cleaved with PreScission protease); not shown: GST, N-terminal, cleaved
T1 sequence (looked up): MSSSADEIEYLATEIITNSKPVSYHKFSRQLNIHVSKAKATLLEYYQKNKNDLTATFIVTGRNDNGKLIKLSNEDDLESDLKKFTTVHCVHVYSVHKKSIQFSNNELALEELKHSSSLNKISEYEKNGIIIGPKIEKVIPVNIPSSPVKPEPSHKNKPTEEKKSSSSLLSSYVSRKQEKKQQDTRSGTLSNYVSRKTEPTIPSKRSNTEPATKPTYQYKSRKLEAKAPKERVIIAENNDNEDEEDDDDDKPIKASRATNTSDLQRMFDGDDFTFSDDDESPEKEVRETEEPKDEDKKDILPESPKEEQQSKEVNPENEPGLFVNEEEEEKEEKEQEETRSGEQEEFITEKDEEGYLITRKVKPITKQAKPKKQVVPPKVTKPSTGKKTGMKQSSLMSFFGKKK
Assay: ITC; MicroCal PEAQ-ITC, 25°C, 20 mM HEPES pH 7.4, 150 mM NaCl; 20 μM CaPol32 or CaPol32 (F398A, F399A) in the cell, 250 μM CaPCNA in the syringe, 25 injections of 1.5 μl; one-site binding model
Conditions: both partners purified

B1: CaPCNA (natural protein, C. albicans, UniProt Q5AMN0 1-259, looked up)
chain: MLEGKFEEAALLKKVVEAIKDCVKKCNFNCSEHGITVQAVDDSRVLLVSLLIGQTSFSEYRCDRDVTLGIDLESFSKIIKSANNEDFLTLLAEDSPDQIMAILEEKQKEKISEYSLKLMDIDSEFLQIDDMEYDAVVNMPSSDFAKLVRDLKNLSESLRVVVTKDSVKFTSEGDSGSGSVILKPYTNLKNERESVTISLDDPVDLTFGLKYLNDIVKAATLSDVITIKLADKTPALFEFKMQSGGYLRFYLAPKFDDDE
notes: PCNA (proliferating cell nuclear antigen, DNA sliding clamp), C. albicans; it calls PCNA trimeric without measuring this here; also called proliferating cell nuclear antigen of C. albicans; source: E. coli BL21 DE3, purified (glutathione-Sepharose 4B, GST cleaved with PreScission protease)
Kd: ~6.75 µM
dH: ~-27 kcal/mol
stoichiometry N: 1 CaPol32 per PCNA trimer
